Measurements from PMC6296734, “The CbrB Regulon: Promoter dissection reveals novel insights into the CbrAB expression network in Pseudomonas putida”.
Substitutions are numbered along the chain they refer to.

T1: CbrB (Pseudomonas putida, UniProt A0ABM7EKZ2 1-480)
T1 sequence: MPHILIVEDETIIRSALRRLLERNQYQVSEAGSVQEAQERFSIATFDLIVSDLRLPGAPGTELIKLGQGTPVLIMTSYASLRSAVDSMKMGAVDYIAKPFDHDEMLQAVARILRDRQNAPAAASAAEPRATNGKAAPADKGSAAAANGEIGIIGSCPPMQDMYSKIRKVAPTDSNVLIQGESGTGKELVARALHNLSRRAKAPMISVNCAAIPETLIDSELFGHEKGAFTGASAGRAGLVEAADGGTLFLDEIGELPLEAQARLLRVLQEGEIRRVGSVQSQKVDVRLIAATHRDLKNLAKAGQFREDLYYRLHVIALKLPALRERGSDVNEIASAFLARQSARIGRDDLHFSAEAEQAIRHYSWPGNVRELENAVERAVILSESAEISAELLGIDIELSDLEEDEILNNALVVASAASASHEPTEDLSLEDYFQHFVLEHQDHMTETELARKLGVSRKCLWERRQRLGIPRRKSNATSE

B1: PcrcZ wt 72 bp (dsDNA)
DNA 1: TTCCCGTAAAAATCTGTTACCCAAGCTTTCCGCCGTAACAGTCCCCGAGGCGTACGGTAACGAAATTGCGACAT
DNA 2: TTATGTCGCAATTTCGTTACCGTACGCCTCGGGGACTGTTACGGCGGAAAGCTTGGGTAACAGATTTTTACGGG
B2: PcrcZ F1 mutant (dsDNA)
DNA 1: B1 DNA 1 with T15G, G16A, T17C, A19C, C20T
DNA 2: B1 DNA 2 with G57A, T58G, A60G, C61T, A62C
B3: PcrcZ R1 mutant (dsDNA)
DNA 1: B1 DNA 1 with G35T, T36G, A37C, A38T, C39A, A40C
DNA 2: TTATGTCGCAATTTCGTTACCGTACGCCTCGGGGACGTAGCAGGCGGAAAGCTTGGGTAACAGATTTTTACGG
B4: PcrcZ R2 mutant (dsDNA)
DNA 1: B1 DNA 1 with G57T, T58A, A59C, A60C, C61G, G62T
DNA 2: B1 DNA 2 with C15A, G16C, T17G, T18G, A19T, C20A
B5: PcrcY wt 72 bp (dsDNA)
DNA 1: TTGTGTGGGTGAAGTGTTACCTCCCGCACATTTCACAGCAAAAAATCGGGTAACAGGGAAACAAATCGGCAGAA
DNA 2: TTTTCTGCCGATTTGTTTCCCTGTTACCCGATTTTTTGCTGTGAAATGTGCGGGAGGTAACACTTCACCCACAC
B6: PcrcY F1 mutant (dsDNA)
DNA 1: B5 DNA 1 with T15G, G16A, T17C, A19C, C20T
DNA 2: B5 DNA 2 with G57A, T58G, A60G, C61T, A62C
B7: PcrcY R' mutant (dsDNA)
DNA 1: B5 DNA 1 with G50T, T51A, A52C, A53C, C54G, A55T
DNA 2: B5 DNA 2 with T22A, G23C, T24G, T25G, A26T, C27A
B8: PcrcY R2 mutant (dsDNA)
DNA 1: B5 DNA 1 with G58T, A59C, A60T, A61C, C62A, A63T
DNA 2: B5 DNA 2 with T14A, G15T, T16G, T17A, T18G, C19A

Assays:
CbrB [1] = biological target: T1, CbrB; experiment: EMSA; EMSA at room temperature; crcZ/crcY (5 nM): 35 mM Tris-acetate pH 7.9, 70 mM KAc, 20 mM NH4Ac, 2 mM MgAc2, 1 mM CaCl2, 1 mM DTT, 5% glycerol; others (1.5 nM) and footprint: 50 mM Tris-HCl pH 7.4, 50 mM KCl, 10 mM MgCl2, 0.1 mM EDTA, 1 mM DTT; plus 100 ng/ul salmon sperm DNA, 250 ng/ul BSA; conditions: protein: recombinant, tags: N-terminal His tag (pET-14b derived pMPO1229), label: 32P-dATP Klenow fill-in
CbrB [2] = biological target: T1, CbrB; experiment: EMSA; not significantly affected; EMSA at room temperature; crcZ/crcY (5 nM): 35 mM Tris-acetate pH 7.9, 70 mM KAc, 20 mM NH4Ac, 2 mM MgAc2, 1 mM CaCl2, 1 mM DTT, 5% glycerol; others (1.5 nM) and footprint: 50 mM Tris-HCl pH 7.4, 50 mM KCl, 10 mM MgCl2, 0.1 mM EDTA, 1 mM DTT; plus 100 ng/ul salmon sperm DNA, 250 ng/ul BSA; conditions: protein: recombinant; tags: N-terminal His tag (pET-14b derived pMPO1229); label: 32P-dATP Klenow fill-in; 5' overhang 2 nt at both ends before fill-in
[3] = 5' overhang 2 nt at both ends before fill-in

Row | Binder | binding result (CbrB [1]; [3]) | further results
1 | B1 | binds | –
2 | B2 | no binding | –
3 | B3 | – | binding result (CbrB [1]; 5' overhang 2 nt (one end 3 nt, reverse strand printed one G shorter) before fill-in): no binding
4 | B4 | no binding | –
5 | B5 | binds | –
6 | B6 | no binding | –
7 | B7 | – | binding result (CbrB [2]): binds
8 | B8 | – | binding result (CbrB [2]): binds
